Measurements as given in patent US20260242735A1 (UNIVERSIT T BASEL, published 2026).

Assays:
[1] = target: human CD33 A289S (human, UniProt P20138 18-364); assay: flow cytometry, HEK293-T, alanine scan;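 also: transiently transfected HEK293-T cells expressing single alanine mutants of human CD33 (alanine residues changed to serine), antibody binding fluorescence minus background, relative to wild type CD33, mean of duplicates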
Protocol: (§1) An alanine scan on human CD33 was performed to the determine the residues on CD33 that are involved in binding to the antibodies investigated. […] Briefly, a mutation library of CD33 was created by high-throughput, site-directed mutagenesis. Each residue was individually mutated to alanine, with alanine codons mutated to serine. The mutant library was arrayed in 384-well microplates and transiently transfected into HEK293-T. Following transfection, cells were incubated with the indicated antibodies (IgG or Fab) at concentrations pre-determined using an independent immunofluorescence titration curve on wild type CD33. […] Binding of each antibody to each mutant clone was determined in duplicates. For each point, background fluorescence was subtracted from the raw data, which were then normalized to antibody reactivity with wild type CD33.
(§2) Critical residues for antibody binding (outlined in dark grey) were residues whose mutations led to a binding of the test Abs of less than 20%. Additional secondary residues (outlined in light grey) were identified that led to a binding of the test Abs of between 20 and 40% as compared to the wild type CD33.

[2] = target: human CD33 P319A (human, UniProt P20138 18-364); assay: flow cytometry, HEK293-T, alanine scan;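 also: transiently transfected HEK293-T cells expressing single alanine mutants of human CD33 (alanine residues changed to serine), antibody binding fluorescence minus background, relative to wild type CD33, mean of duplicates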
Protocol: as §1, §2

[3] = target: human CD33 H339A (human, UniProt P20138 18-364); assay: flow cytometry, HEK293-T, alanine scan;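 also: transiently transfected HEK293-T cells expressing single alanine mutants of human CD33 (alanine residues changed to serine), antibody binding fluorescence minus background, relative to wild type CD33, mean of duplicates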
Protocol: as §1, §2

[4] = target: human CD33 S307A (human, UniProt P20138 18-364); assay: flow cytometry, HEK293-T, alanine scan;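 also: transiently transfected HEK293-T cells expressing single alanine mutants of human CD33 (alanine residues changed to serine), antibody binding fluorescence minus background, relative to wild type CD33, mean of duplicates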
Protocol: as §1, §2

[5] = target: human CD33 I278A (human, UniProt P20138 18-364); assay: flow cytometry, HEK293-T, alanine scan
Protocol: as §1, §2

[6] = target: human CD33 S314A (human, UniProt P20138 18-364); assay: flow cytometry, HEK293-T, alanine scan
Protocol: as §1, §2

[7] = target: human CD33 T284A (human, UniProt P20138 18-364); assay: flow cytometry, HEK293-T, alanine scan
Protocol: as §1, §2

[8] = target: human CD33 A293S (human, UniProt P20138 18-364); assay: flow cytometry, HEK293-T, alanine scan
Protocol: as §1, §2

[9] = target: human CD33 F44H (human, UniProt P20138 18-364); assay: flow cytometry on transfected cells, IgG
Protocol: as §1
(§3) Antibodies were screened for binding to the human CD33 variants in IgG format. […] For each mutation, background fluorescence was subtracted from the raw data, which were then normalized to antibody reactivity with wild-type CD33.

[10] = target: human CD33 I47V (human, UniProt P20138 18-364); assay: flow cytometry on transfected cells, IgG
Protocol: as §1, §3

[11] = target: human CD33 Y49T (human, UniProt P20138 18-364); assay: flow cytometry on transfected cells, IgG
Protocol: as §1, §3

[12] = target: human CD33 I47Y (human, UniProt P20138 18-364); assay: flow cytometry on transfected cells, IgG
Protocol: as §1, §3

[13] = target: human CD33 Y50Q (human, UniProt P20138 18-364); assay: flow cytometry on transfected cells, IgG
Protocol: as §1, §3

[14] = target: human CD33 F44L (human, UniProt P20138 18-364); assay: flow cytometry on transfected cells, IgG
Protocol: as §1, §3

[15] = target: human CD33 F44D (human, UniProt P20138 18-364); assay: flow cytometry on transfected cells, IgG
Protocol: as §1, §3

[16] = target: human CD33 I47T (human, UniProt P20138 18-364); assay: flow cytometry on transfected cells, IgG
Protocol: as §1, §3

[17] = target: human CD33 F44T (human, UniProt P20138 18-364); assay: flow cytometry on transfected cells, IgG
Protocol: as §1, §3

[18] = target: human CD33 Y49S (human, UniProt P20138 18-364); assay: flow cytometry on transfected cells, IgG
Protocol: as §1, §3

[19] = target: human CD33 I47L (human, UniProt P20138 18-364); assay: flow cytometry on transfected cells, IgG
Protocol: as §1, §3

[20] = target: human CD33 P48F (human, UniProt P20138 18-364); assay: flow cytometry on transfected cells, IgG
Protocol: as §1, §3

[21] = target: human CD33 F44P (human, UniProt P20138 18-364); assay: flow cytometry on transfected cells, IgG
Protocol: as §1, §3

[22] = target: human CD33 F44Q (human, UniProt P20138 18-364); assay: flow cytometry on transfected cells, IgG
Protocol: as §1, §3

[23] = target: human CD33 T42N (human, UniProt P20138 18-364); assay: flow cytometry on transfected cells, IgG
Protocol: as §1, §3

[24] = target: human CD33 P46R (human, UniProt P20138 18-364); assay: flow cytometry on transfected cells, IgG
Protocol: as §1, §3

[25] = target: human CD33 Y49H (human, UniProt P20138 18-364); assay: flow cytometry on transfected cells, IgG
Protocol: as §1, §3

[26] = target: human CD33 Y49L (human, UniProt P20138 18-364); assay: flow cytometry on transfected cells, IgG
Protocol: as §1, §3

[27] = target: human CD33 P46S (human, UniProt P20138 18-364); assay: flow cytometry on transfected cells, IgG
Protocol: as §1, §3

[28] = target: human CD33 Y49I (human, UniProt P20138 18-364); assay: flow cytometry on transfected cells, IgG
Protocol: as §1, §3

[29] = target: human CD33 P48D (human, UniProt P20138 18-364); assay: flow cytometry on transfected cells, IgG
Protocol: as §1, §3

[30] = target: human CD33 P48V (human, UniProt P20138 18-364); assay: flow cytometry on transfected cells, IgG
Protocol: as §1, §3

[31] = target: human CD33 I47R (human, UniProt P20138 18-364); assay: flow cytometry on transfected cells, IgG
Protocol: as §1, §3

[32] = target: human CD33 Y50G (human, UniProt P20138 18-364); assay: flow cytometry on transfected cells, IgG
Protocol: as §1, §3

[33] = target: human CD33 Y50V (human, UniProt P20138 18-364); assay: flow cytometry on transfected cells, IgG
Protocol: as §1, §3

[34] = target: human CD33 P48M (human, UniProt P20138 18-364); assay: flow cytometry on transfected cells, IgG
Protocol: as §1, §3

[35] = target: human CD33 P48N (human, UniProt P20138 18-364); assay: flow cytometry on transfected cells, IgG
Protocol: as §1, §3

[36] = target: human CD33 P48I (human, UniProt P20138 18-364); assay: flow cytometry on transfected cells, IgG
Protocol: as §1, §3

[37] = target: human CD33 P48Y (human, UniProt P20138 18-364); assay: flow cytometry on transfected cells, IgG
Chain of human CD33 P48Y (P20138 18-364 P48Y limits assumed): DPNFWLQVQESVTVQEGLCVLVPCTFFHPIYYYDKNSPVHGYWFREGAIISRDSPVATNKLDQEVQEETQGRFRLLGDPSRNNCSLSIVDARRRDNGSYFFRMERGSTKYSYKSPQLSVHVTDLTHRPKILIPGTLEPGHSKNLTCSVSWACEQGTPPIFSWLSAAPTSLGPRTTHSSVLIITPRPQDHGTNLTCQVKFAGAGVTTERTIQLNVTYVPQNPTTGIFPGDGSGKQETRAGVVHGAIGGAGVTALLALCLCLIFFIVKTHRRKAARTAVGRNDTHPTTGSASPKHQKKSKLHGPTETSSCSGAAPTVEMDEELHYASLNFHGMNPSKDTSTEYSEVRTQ
Protocol: as §1, §3

Chain of human CD33 I278A (P20138 18-364 I278A limits assumed): as the sequence (P20138 18-364 P48Y limits assumed) above, with Y31P, I261A counted along it
Chain of human CD33 Y50V (P20138 18-364 Y50V limits assumed): as the sequence (P20138 18-364 P48Y limits assumed) above, with Y31P, Y33V counted along it
Chain of human CD33 A289S (P20138 18-364 A289S limits assumed): as the sequence (P20138 18-364 P48Y limits assumed) above, with Y31P, A272S counted along it
Chain of human CD33 F44Q (P20138 18-364 F44Q limits assumed): as the sequence (P20138 18-364 P48Y limits assumed) above, with F27Q, Y31P counted along it
Chain of human CD33 T42N (P20138 18-364 T42N limits assumed): as the sequence (P20138 18-364 P48Y limits assumed) above, with T25N, Y31P counted along it
Chain of human CD33 A293S (P20138 18-364 A293S limits assumed): as the sequence (P20138 18-364 P48Y limits assumed) above, with Y31P, A276S counted along it
Chain of human CD33 F44H (P20138 18-364 F44H limits assumed): as the sequence (P20138 18-364 P48Y limits assumed) above, with F27H, Y31P counted along it
Chain of human CD33 P48N (P20138 18-364 P48N limits assumed): as the sequence (P20138 18-364 P48Y limits assumed) above, with Y31N counted along it
Chain of human CD33 P48I (P20138 18-364 P48I limits assumed): as the sequence (P20138 18-364 P48Y limits assumed) above, with Y31I counted along it
Chain of human CD33 Y49I (P20138 18-364 Y49I limits assumed): as the sequence (P20138 18-364 P48Y limits assumed) above, with Y31P, Y32I counted along it
Chain of human CD33 F44P (P20138 18-364 F44P limits assumed): as the sequence (P20138 18-364 P48Y limits assumed) above, with F27P, Y31P counted along it
Chain of human CD33 Y49S (P20138 18-364 Y49S limits assumed): as the sequence (P20138 18-364 P48Y limits assumed) above, with Y31P, Y32S counted along it
Chain of human CD33 S307A (P20138 18-364 S307A limits assumed): as the sequence (P20138 18-364 P48Y limits assumed) above, with Y31P, S290A counted along it

B1: Refmab #6 (antibody, V domains shown)
VH: QVQLQQPGAEVVKPGASVKMSCKASGYTFTSYYIHWIKQTPGQGLEWVGVIYPGNDDISYNQKFQGKATLTADKSSTTAYMQLSSLTSEDSAVYYCAREVRLRYFDVWGQGTTVTVSS
VL: EIVLTQSPGSLAVSPGERVTMSCKSSQSVFFSSSQKNYLAWYQQIPGQSPRLLIYWASTRESGVPDRFTGSGSGTDFTLTISSVQPEDLAIYYCHQYLSSRTFGQGTKLEIK
notes: The alanine scan used IgG or Fab
Mean % WT Binding [1]: 96 % WT binding | Mean % WT Binding [2]: 85.2 % WT binding | Mean % WT Binding [3]: 99.3 % WT binding | Mean % WT Binding [4]: 116 % WT binding | Mean % WT Binding [5]: 108 % WT binding | Mean % WT Binding [6]: 96.3 % WT binding | Mean % WT Binding [7]: 105 % WT binding | Mean % WT Binding [8]: 101 % WT binding

B2: Refmab #6 (antibody, human IgG1, V domains shown)
VH: B1 VH
VL: B1 VL
Mean % WT Binding [9]: 91.3 % WT binding | Mean % WT Binding [10]: 101 % WT binding | Mean % WT Binding [11]: 121 % WT binding | Mean % WT Binding [12]: 105 % WT binding | Mean % WT Binding [13]: 103 % WT binding | Mean % WT Binding [14]: 104 % WT binding | Mean % WT Binding [15]: 107 % WT binding | Mean % WT Binding [16]: 97.2 % WT binding | Mean % WT Binding [17]: 93.9 % WT binding | Mean % WT Binding [18]: 102 % WT binding | Mean % WT Binding [19]: 99.1 % WT binding | Mean % WT Binding [20]: 93.8 % WT binding | Mean % WT Binding [21]: 88 % WT binding | Mean % WT Binding [22]: 102 % WT binding | Mean % WT Binding [23]: 93.5 % WT binding | Mean % WT Binding [24]: 103 % WT binding | Mean % WT Binding [25]: 118 % WT binding | Mean % WT Binding [26]: 97.9 % WT binding | Mean % WT Binding [27]: 110 % WT binding | Mean % WT Binding [28]: 113 % WT binding | Mean % WT Binding [29]: 115 % WT binding | Mean % WT Binding [30]: 105 % WT binding | Mean % WT Binding [31]: 96.9 % WT binding | Mean % WT Binding [32]: 115 % WT binding | Mean % WT Binding [33]: 108 % WT binding | Mean % WT Binding [34]: 103 % WT binding | Mean % WT Binding [35]: 98.4 % WT binding | Mean % WT Binding [36]: 102 % WT binding | Mean % WT Binding [37]: 79.1 % WT binding

B3: Refmab #5 (antibody, V domains shown)
VH: QVQLVQSGAEVKKPGASVKVSCKASGYTFTNYDINWVRQAPGQGLEWIGWIYPGDGSTKYNEKFKAKATLTADTSTSTAYMELRSLRSDDTAVYYCASGYEDAMDYWGQGTTVTVSS
VL: DIQMTQSPSSLSASVGDRVTINCKASQDINSYLSWFQQKPGKAPKTLIYRANRLVDGVPSRFSGSGSGQDYTLTISSLQPEDFATYYCLQYDEFPLTFGGGTKVEIK
notes: as for B1
Mean % WT Binding [1]: 91.8 % WT binding | Mean % WT Binding [2]: 70 % WT binding | Mean % WT Binding [3]: 82.7 % WT binding | Mean % WT Binding [4]: 83 % WT binding | Mean % WT Binding [5]: 100 % WT binding | Mean % WT Binding [6]: 112 % WT binding | Mean % WT Binding [7]: 103 % WT binding | Mean % WT Binding [8]: 87.7 % WT binding

B4: Refmab #5 (antibody, human IgG1, V domains shown)
VH: B3 VH
VL: B3 VL
Mean % WT Binding [9]: 117 % WT binding | Mean % WT Binding [10]: 104 % WT binding | Mean % WT Binding [11]: 0.5 % WT binding | Mean % WT Binding [12]: 94.5 % WT binding | Mean % WT Binding [13]: 2.9 % WT binding | Mean % WT Binding [14]: 109 % WT binding | Mean % WT Binding [15]: 111 % WT binding | Mean % WT Binding [16]: 98.4 % WT binding | Mean % WT Binding [17]: 92.4 % WT binding | Mean % WT Binding [18]: 0.5 % WT binding | Mean % WT Binding [19]: 107 % WT binding | Mean % WT Binding [20]: 6 % WT binding | Mean % WT Binding [21]: 114 % WT binding | Mean % WT Binding [22]: 93.9 % WT binding | Mean % WT Binding [23]: 91.1 % WT binding | Mean % WT Binding [24]: 103 % WT binding | Mean % WT Binding [25]: 2.4 % WT binding | Mean % WT Binding [26]: 0.8 % WT binding | Mean % WT Binding [27]: 98.7 % WT binding | Mean % WT Binding [28]: 0.5 % WT binding | Mean % WT Binding [29]: 2.1 % WT binding | Mean % WT Binding [30]: 53.5 % WT binding | Mean % WT Binding [31]: 94.6 % WT binding | Mean % WT Binding [32]: 5 % WT binding | Mean % WT Binding [33]: 4.2 % WT binding | Mean % WT Binding [34]: 31.4 % WT binding | Mean % WT Binding [35]: 4.4 % WT binding | Mean % WT Binding [36]: 4 % WT binding | Mean % WT Binding [37]: 1.5 % WT binding
